Laboratory results taken from PMC8452523 (Cell Reports, 2021).

B1: REGN10933 (antibody, V domains shown)
VH: QVQLVESGGGLVKPGGSLRLSCAASGFTFSDYYMSWIRQAPGKGLEWVSYITYSGSTIYYADSVKGRFTISRDNAKSSLYLQMNSLRAEDTAVYYCARDRGTTMVPFDYWGQGTLVTVSS
VL: DIQMTQSPSSLSASVGDRVTITCQASQDITNYLNWYQQKPGKAPKLLIYAASNLETGVPSRFSGSGSGTDFTFTISGLQPEDIATYYCQQYDNLPLTFGGGTKVEIK
B2: P5C3 human monoclonal antibody (antibody, V domains shown)
VH: QMQLVQSGPEVKKPGTSVKVSCKASGFTFTSSAVQWVRQARGQRLEWIGWIVVGSGNTDYAQQFQERVTITRDMSTSTAYMELSSLGSEDTAVYYCAAPNCSGGSCYDGFDLWGQGTMVTVSS
VL: EIVLTQSPGTLSLSPGERATLSCRGSQSVRSSYLGWYQQKPGQAPRLLIYGASSRATGIPDRFSGSGSGTDFTLTISRLEPEDFAVYYCQQYGSSPWTFGQGTKVEIK
B3: REGN10987 (antibody, V domains shown)
VH: QVQLVESGGGVVQPGRSLRLSCAASGFTFSNYAMYWVRQAPGKGLEWVAVISYDGSNKYYADSVKGRFTISRDNSKNTLYLQMNSLRTEDTAVYYCASGSDYGDYLLVYWGQGTLVTVSS
VL: QSALTQPASVSGSPGQSITISCTGTSSDVGGYNYVSWYQQHPGKAPKLMIYDVSKRPSGVSNRFSGSKSGNTASLTISGLQSEDEADYYCNSLTSISTWVFGGGTKLTVL

Biological target: Spike RBD protein (SARS-CoV-2, UniProt P0DTC2)
Test: Luminex bead-based competitive binding assay

Row | Binder | binding result
1 | B1 | binds
2 | B2 | binds
3 | B3 | binds
